Data taken from paper doi:10.1101/2025.07.28.667101.

Molecular target: poly-C3-GFOGMR (disulfide-linked polymer of the triple-helical peptide C3-GFOGMR)
Assay: ELISA

affinity relative to the T221A mutant: 0.0033 fold
Substance: GST-α2I domain E318W mutant (from UniProt P17301 169-366) (domain or fragment)
